The chains are these.
B1: PDGFRαD123-(GGGGS)3-PAS(600)-(GGGGS)3-VEGFR1D2/R2D3 (receptor)
chain: QLSLPSILPNENEKVVQLNSSFSLRCFGESEVSWQYPMSEEESSDVEIRNEENNSGLFVTVLEVSSASAAHTGLYTCYYNHTQTEENELEGRHIYIYVPDPDVAFVPLGMTDYLVIVEDDDSAIIPCRTTDPETPVTLHNSEGVVPASYDSRQGFNGTFTVGPYICEATVKGKKFQTIPFNVYALKATSELDLEMEALKTVYKSGETIVVTCAVFNNEVVDLQWTYPGEVKGKGITMLEEIKVPSIKLVYTLTVPEATVKDSGDYECAARQATREVKEMKKVTISVHEKGGGGGSGGGGSGGGGSASPAAPAPASPAAPAPSAPAASPAAPAPASPAAPAPSAPAASPAAPAPASPAAPAPSAPAASPAAPAPASPAAPAPSAPAASPAAPAPASPAAPAPSAPAASPAAPAPASPAAPAPSAPAASPAAPAPASPAAPAPSAPAASPAAPAPASPAAPAPSAPAASPAAPAPASPAAPAPSAPAASPAAPAPASPAAPAPSAPAASPAAPAPASPAAPAPSAPAASPAAPAPASPAAPAPSAPAASPAAPAPASPAAPAPSAPAASPAAPAPASPAAPAPSAPAASPAAPAPASPAAPAPSAPAASPAAPAPASPAAPAPSAPAASPAAPAPASPAAPAPSAPAASPAAPAPASPAAPAPSAPAASPAAPAPASPAAPAPSAPAASPAAPAPASPAAPAPSAPAASPAAPAPASPAAPAPSAPAASPAAPAPASPAAPAPSAPAASPAAPAPASPAAPAPSAPAASPAAPAPASPAAPAPSAPAASPAAPAPASPAAPAPSAPAASPAAPAPASPAAPAPSAPAASPAAPAPASPAAPAPSAPAASPAAPAPASPAAPAPSAPAASPAAPAPASPAAPAPSAPAASPAAPAPASPAAPAPSAPAAGGGGSGGGGSGGGGSSDTGRPFVEMYSEIPEIIHMTEGRELVIPCRVTSPNITVTLKKFPLDTLIPDGKRIIWDSRKGFIISNATYKEIGLLTCEATVNGHLYKTNYLTHRQTNTIIDVVLSPSHGIELSVGEKLVLNCTARTELNVGIDFNWEYPSSKHQHKKLVNRDLKTQSGSEMKKFLSTLTIDGVTRSDQGLYTCAASSGLMTKKNSTFVRVHEKHHHHHH
notes: also called EPS1114P
B2: PDGFRαD123-PAS(300)-VEGFR1D2/R2D3 (receptor)
chain: QLSLPSILPNENEKVVQLNSSFSLRCFGESEVSWQYPMSEEESSDVEIRNEENNSGLFVTVLEVSSASAAHTGLYTCYYNHTQTEENELEGRHIYIYVPDPDVAFVPLGMTDYLVIVEDDDSAIIPCRTTDPETPVTLHNSEGVVPASYDSRQGFNGTFTVGPYICEATVKGKKFQTIPFNVYALKATSELDLEMEALKTVYKSGETIVVTCAVFNNEVVDLQWTYPGEVKGKGITMLEEIKVPSIKLVYTLTVPEATVKDSGDYECAARQATREVKEMKKVTISVHEKGASPAAPAPASPAAPAPSAPAASPAAPAPASPAAPAPSAPAASPAAPAPASPAAPAPSAPAASPAAPAPASPAAPAPSAPAASPAAPAPASPAAPAPSAPAASPAAPAPASPAAPAPSAPAASPAAPAPASPAAPAPSAPAASPAAPAPASPAAPAPSAPAASPAAPAPASPAAPAPSAPAASPAAPAPASPAAPAPSAPAASPAAPAPASPAAPAPSAPAASPAAPAPASPAAPAPSAPAASPAAPAPASPAAPAPSAPAASPAAPAPASPAAPAPSAPAASPAAPAPASPAAPAPSAPASDTGRPFVEMYSEIPEIIHMTEGRELVIPCRVTSPNITVTLKKFPLDTLIPDGKRIIWDSRKGFIISNATYKEIGLLTCEATVNGHLYKTNYLTHRQTNTIIDVVLSPSHGIELSVGEKLVLNCTARTELNVGIDFNWEYPSSKHQHKKLVNRDLKTQSGSEMKKFLSTLTIDGVTRSDQGLYTCAASSGLMTKKNSTFVRVHEKHHHHHH
notes: Expressed in CHO-3E7 cells, purified over a Ni column; also called EPS1103P
B3: VEGFR1D2/R2D3-(GGGGS)3-PAS(600)-(GGGGS)3-PDGFRαD123 (receptor)
chain: SDTGRPFVEMYSEIPEIIHMTEGRELVIPCRVTSPNITVTLKKFPLDTLIPDGKRIIWDSRKGFIISNATYKEIGLLTCEATVNGHLYKTNYLTHRQTNTIIDVVLSPSHGIELSVGEKLVLNCTARTELNVGIDFNWEYPSSKHQHKKLVNRDLKTQSGSEMKKFLSTLTIDGVTRSDQGLYTCAASSGLMTKKNSTFVRVHEKGGGGSGGGGSGGGGSASPAAPAPASPAAPAPSAPAASPAAPAPASPAAPAPSAPAASPAAPAPASPAAPAPSAPAASPAAPAPASPAAPAPSAPAASPAAPAPASPAAPAPSAPAASPAAPAPASPAAPAPSAPAASPAAPAPASPAAPAPSAPAASPAAPAPASPAAPAPSAPAASPAAPAPASPAAPAPSAPAASPAAPAPASPAAPAPSAPAASPAAPAPASPAAPAPSAPAASPAAPAPASPAAPAPSAPAASPAAPAPASPAAPAPSAPAASPAAPAPASPAAPAPSAPAASPAAPAPASPAAPAPSAPAASPAAPAPASPAAPAPSAPAASPAAPAPASPAAPAPSAPAASPAAPAPASPAAPAPSAPAASPAAPAPASPAAPAPSAPAASPAAPAPASPAAPAPSAPAASPAAPAPASPAAPAPSAPAASPAAPAPASPAAPAPSAPAASPAAPAPASPAAPAPSAPAASPAAPAPASPAAPAPSAPAASPAAPAPASPAAPAPSAPAASPAAPAPASPAAPAPSAPAASPAAPAPASPAAPAPSAPAASPAAPAPASPAAPAPSAPAASPAAPAPASPAAPAPSAPAASPAAPAPASPAAPAPSAPAAGGGGSGGGGSGGGGSQLSLPSILPNENEKVVQLNSSFSLRCFGESEVSWQYPMSEEESSDVEIRNEENNSGLFVTVLEVSSASAAHTGLYTCYYNHTQTEENELEGRHIYIYVPDPDVAFVPLGMTDYLVIVEDDDSAIIPCRTTDPETPVTLHNSEGVVPASYDSRQGFNGTFTVGPYICEATVKGKKFQTIPFNVYALKATSELDLEMEALKTVYKSGETIVVTCAVFNNEVVDLQWTYPGEVKGKGITMLEEIKVPSIKLVYTLTVPEATVKDSGDYECAARQATREVKEMKKVTISVHEKGHHHHHH
notes: also called EPS1115P
B4: PAS(200)-PDGFRαD123-VEGFR1D2/R2D3 (receptor)
chain: HHHHHHASPAAPAPASPAAPAPSAPAASPAAPAPASPAAPAPSAPAASPAAPAPASPAAPAPSAPAASPAAPAPASPAAPAPSAPAASPAAPAPASPAAPAPSAPAASPAAPAPASPAAPAPSAPAASPAAPAPASPAAPAPSAPAASPAAPAPASPAAPAPSAPAASPAAPAPASPAAPAPSAPAASPAAPAPASPAAPAPSAPAQLSLPSILPNENEKVVQLNSSFSLRCFGESEVSWQYPMSEEESSDVEIRNEENNSGLFVTVLEVSSASAAHTGLYTCYYNHTQTEENELEGRHIYIYVPDPDVAFVPLGMTDYLVIVEDDDSAIIPCRTTDPETPVTLHNSEGVVPASYDSRQGFNGTFTVGPYICEATVKGKKFQTIPFNVYALKATSELDLEMEALKTVYKSGETIVVTCAVFNNEVVDLQWTYPGEVKGKGITMLEEIKVPSIKLVYTLTVPEATVKDSGDYECAARQATREVKEMKKVTISVHEKGSDTGRPFVEMYSEIPEIIHMTEGRELVIPCRVTSPNITVTLKKFPLDTLIPDGKRIIWDSRKGFIISNATYKEIGLLTCEATVNGHLYKTNYLTHRQTNTIIDVVLSPSHGIELSVGEKLVLNCTARTELNVGIDFNWEYPSSKHQHKKLVNRDLKTQSGSEMKKFLSTLTIDGVTRSDQGLYTCAASSGLMTKKNSTFVRVHEK
notes: the tag stands at the N-terminus; also called EPS1110P
B5: PDGFRαD123-PAS(600)-VEGFR1D2/R2D3 (receptor)
chain: QLSLPSILPNENEKVVQLNSSFSLRCFGESEVSWQYPMSEEESSDVEIRNEENNSGLFVTVLEVSSASAAHTGLYTCYYNHTQTEENELEGRHIYIYVPDPDVAFVPLGMTDYLVIVEDDDSAIIPCRTTDPETPVTLHNSEGVVPASYDSRQGFNGTFTVGPYICEATVKGKKFQTIPFNVYALKATSELDLEMEALKTVYKSGETIVVTCAVFNNEVVDLQWTYPGEVKGKGITMLEEIKVPSIKLVYTLTVPEATVKDSGDYECAARQATREVKEMKKVTISVHEKGASPAAPAPASPAAPAPSAPAASPAAPAPASPAAPAPSAPAASPAAPAPASPAAPAPSAPAASPAAPAPASPAAPAPSAPAASPAAPAPASPAAPAPSAPAASPAAPAPASPAAPAPSAPAASPAAPAPASPAAPAPSAPAASPAAPAPASPAAPAPSAPAASPAAPAPASPAAPAPSAPAASPAAPAPASPAAPAPSAPAASPAAPAPASPAAPAPSAPAASPAAPAPASPAAPAPSAPAASPAAPAPASPAAPAPSAPAASPAAPAPASPAAPAPSAPAASPAAPAPASPAAPAPSAPAASPAAPAPASPAAPAPSAPAASPAAPAPASPAAPAPSAPAASPAAPAPASPAAPAPSAPAASPAAPAPASPAAPAPSAPAASPAAPAPASPAAPAPSAPAASPAAPAPASPAAPAPSAPAASPAAPAPASPAAPAPSAPAASPAAPAPASPAAPAPSAPAASPAAPAPASPAAPAPSAPAASPAAPAPASPAAPAPSAPAASPAAPAPASPAAPAPSAPAASPAAPAPASPAAPAPSAPAASPAAPAPASPAAPAPSAPAASPAAPAPASPAAPAPSAPAASPAAPAPASPAAPAPSAPAASDTGRPFVEMYSEIPEIIHMTEGRELVIPCRVTSPNITVTLKKFPLDTLIPDGKRIIWDSRKGFIISNATYKEIGLLTCEATVNGHLYKTNYLTHRQTNTIIDVVLSPSHGIELSVGEKLVLNCTARTELNVGIDFNWEYPSSKHQHKKLVNRDLKTQSGSEMKKFLSTLTIDGVTRSDQGLYTCAASSGLMTKKNSTFVRVHEKHHHHHH
notes: also called EPS1113P
B6: PAS(200)-VEGFR1D2/R2D3-PDGFRαD123 (receptor)
chain: HHHHHHASPAAPAPASPAAPAPSAPAASPAAPAPASPAAPAPSAPAASPAAPAPASPAAPAPSAPAASPAAPAPASPAAPAPSAPAASPAAPAPASPAAPAPSAPAASPAAPAPASPAAPAPSAPAASPAAPAPASPAAPAPSAPAASPAAPAPASPAAPAPSAPAASPAAPAPASPAAPAPSAPAASPAAPAPASPAAPAPSAPASDTGRPFVEMYSEIPEIIHMTEGRELVIPCRVTSPNITVTLKKFPLDTLIPDGKRIIWDSRKGFIISNATYKEIGLLTCEATVNGHLYKTNYLTHRQTNTIIDVVLSPSHGIELSVGEKLVLNCTARTELNVGIDFNWEYPSSKHQHKKLVNRDLKTQSGSEMKKFLSTLTIDGVTRSDQGLYTCAASSGLMTKKNSTFVRVHEKQLSLPSILPNENEKVVQLNSSFSLRCFGESEVSWQYPMSEEESSDVEIRNEENNSGLFVTVLEVSSASAAHTGLYTCYYNHTQTEENELEGRHIYIYVPDPDVAFVPLGMTDYLVIVEDDDSAIIPCRTTDPETPVTLHNSEGVVPASYDSRQGFNGTFTVGPYICEATVKGKKFQTIPFNVYALKATSELDLEMEALKTVYKSGETIVVTCAVFNNEVVDLQWTYPGEVKGKGITMLEEIKVPSIKLVYTLTVPEATVKDSGDYECAARQATREVKEMKKVTISVHEKG
notes: the tag stands at the N-terminus; also called EPS1109P

What is called IC50 is the concentration needed to halve the response being measured.

The target of this test is T1, human VEGF165 ligand (human, UniProt P15692-4 27-191).
T1 construct: also called VEGF-A165
T1 sequence (P15692 other isoform, or with tags, fused parts or gaps limits assumed): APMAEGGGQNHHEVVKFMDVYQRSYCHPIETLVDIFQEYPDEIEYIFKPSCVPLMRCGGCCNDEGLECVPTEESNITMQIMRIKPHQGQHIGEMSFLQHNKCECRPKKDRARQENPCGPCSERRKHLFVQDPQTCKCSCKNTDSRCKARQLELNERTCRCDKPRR
Briefly: serial dilution mixed with 50 pM human VEGF165 in solution, unbound VEGF165 measured by ELISA. As to the method:
The amount of unbound VEGF₁₆₅ was then measured by a human VEGF-specific ELISA (Human VEGF DuoSet ELISA kit, R&D Systems, CAT. No. DY293B-05).
Unbound human VEGF₁₆₅ or PDGF-BB was calculated using 4 parameters curve with the absorbance value. And the IC₅₀ of the tested fusion proteins and the reference was calculated using 4 parameters curve with unbound human VEGF₁₆₅ or PDGF-BB.
In general terms: ELISA stands for enzyme-linked immunosorbent assay.
With B1, the half-maximal inhibitory concentration (IC50) was 0.506 nM.
Then B2, with 0.869 nM.
For B3 the value was 0.44 nM; for B4, 0.331 nM.
Then B5, with 0.646 nM.
On to B6, for which the IC50 turned out to be 0.218 nM.

The values above are taken from US20210139559A1 (XL PROTEIN, published 2021).
